PMC5780496

Target: HACE1 (UniProt Q8IYU2)
Assay: co-IP of differently tagged HACE1
Conditions: reference: HACE1 WT with PAK1(K141A); sites S385

Chain of HACE1 (Q8IYU2 whole entry, stated change not applied): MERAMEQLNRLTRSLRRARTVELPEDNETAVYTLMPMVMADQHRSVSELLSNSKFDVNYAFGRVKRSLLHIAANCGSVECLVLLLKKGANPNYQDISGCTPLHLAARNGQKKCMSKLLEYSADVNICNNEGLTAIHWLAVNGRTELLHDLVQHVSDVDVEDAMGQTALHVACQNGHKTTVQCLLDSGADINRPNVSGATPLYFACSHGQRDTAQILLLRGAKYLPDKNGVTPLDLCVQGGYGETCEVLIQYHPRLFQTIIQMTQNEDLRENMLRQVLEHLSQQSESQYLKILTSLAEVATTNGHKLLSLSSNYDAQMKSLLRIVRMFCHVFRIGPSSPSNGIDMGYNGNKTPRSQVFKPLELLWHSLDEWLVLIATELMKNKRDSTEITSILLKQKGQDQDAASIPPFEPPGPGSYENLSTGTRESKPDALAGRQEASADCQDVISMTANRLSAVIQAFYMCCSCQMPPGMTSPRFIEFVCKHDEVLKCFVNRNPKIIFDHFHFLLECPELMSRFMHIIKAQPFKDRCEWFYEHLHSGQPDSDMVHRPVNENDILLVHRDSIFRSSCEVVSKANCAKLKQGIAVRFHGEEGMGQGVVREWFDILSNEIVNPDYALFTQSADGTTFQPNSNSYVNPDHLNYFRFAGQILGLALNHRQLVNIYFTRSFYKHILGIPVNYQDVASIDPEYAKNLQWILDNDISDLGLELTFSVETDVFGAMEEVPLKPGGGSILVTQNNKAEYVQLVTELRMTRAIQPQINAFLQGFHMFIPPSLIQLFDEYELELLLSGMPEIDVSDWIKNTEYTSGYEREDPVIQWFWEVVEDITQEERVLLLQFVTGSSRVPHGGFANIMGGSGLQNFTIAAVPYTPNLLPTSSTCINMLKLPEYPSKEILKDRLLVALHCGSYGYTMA

HACE1 (from UniProt Q8IYU2) HACE1 S385A with PAK1(K141A)
binding against the reference: weaker
